Changes are numbered by the printed parent chain.
B1: 3B04 chimeric IgG4 mAb (antibody, V domains shown)
VH: QVQLQQPGAELVRPGASVTLSCKASGYTFTDYEMHWVKQTPVHGLEWIGEIDPETGDTAYSQKFKGKATLTADKSSSTAYMEFRSLTSEDSAVYYCSRETDYFFDYWGQGTTLTVSS
VL: DIQMTQTPASLSASVGETVTITCGASENIYGALNWYQRKQGKSPQLLIYGATNLADGMSSRFSGSGSGRQYSLKISSLHPDDFATYYCQNVLTTPWTFGGGTKLEIK
notes: also called Parental 3B04
B2: 3D12 chimeric IgG4 mAb (antibody, V domains shown)
VH: B1 VH with G26D, Y32S, M34I, D57G, S61N, F83L
VL: B1 VL with T7S, F83V, T93S
notes: Chimeric human IgG4 (S-to-P, L-to-E) with human CL, as m1; also called Parental 3D12; 03D12

Tests used:
[1] = biological target: Full length LIGHT W198A on HEK293FF cells (Homo sapiens (Human), UniProt O43557 1-240); assay: flow cytometry, HEK293FF, mAb at EC50
[2] = biological target: Full length LIGHT V196A on HEK293FF cells (Homo sapiens (Human), UniProt O43557 1-240); assay: flow cytometry, HEK293FF, mAb at EC50
[3] = biological target: Full length LIGHT R189A on HEK293FF cells (Homo sapiens (Human), UniProt O43557 1-240); assay: flow cytometry, HEK293FF, mAb at EC50
[4] = biological target: Full length LIGHT W197A on HEK293FF cells (Homo sapiens (Human), UniProt O43557 1-240); assay: flow cytometry, HEK293FF, mAb at EC50
[5] = biological target: Full length LIGHT S194A on HEK293FF cells (Homo sapiens (Human), UniProt O43557 1-240); assay: flow cytometry, HEK293FF, mAb at EC50
[6] = biological target: Full length LIGHT S192A on HEK293FF cells (Homo sapiens (Human), UniProt O43557 1-240); assay: flow cytometry, HEK293FF, mAb at EC50
[7] = biological target: T1, Recombinant human soluble LIGHT, amino acids 74-240 (R&D Systems 664-LI) (human, UniProt O43557 74-240); assay: summary statement comparing soluble LIGHT binding with membrane LIGHT binding; soluble LIGHT preparation not specified
T1 construct: range 74-240; Glycosylated trimer by native MS; also called 74-240 LIGHT
T1 chain: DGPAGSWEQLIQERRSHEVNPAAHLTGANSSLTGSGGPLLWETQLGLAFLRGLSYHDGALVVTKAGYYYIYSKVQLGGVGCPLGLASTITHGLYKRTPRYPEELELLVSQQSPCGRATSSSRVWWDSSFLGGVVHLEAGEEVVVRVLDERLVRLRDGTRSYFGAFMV

[8] = biological target: T2, Human LIGHT stably expressed on EL4 cells (EL4-LIGHT) (human, UniProt O43557 1-240); assay: flow cytometry competition on EL4-LIGHT cells, co-incubation 40 min 4 C; blocked ligand DcR3-Fc-AF647 0.8 ug/ml; same IC50 as 0.020ug/ml, second unit printed
T2 construct: whole, on cells; also called membrane LIGHT
Experimental: (§1) EL4-LIGHT cells were co-incubated with Alexa Fluor 647 conjugated DcR3-Fc (DcR3-Fc-AF647; 0.8 μg/ml) and graded concentrations (31 μg/ml to 128 μg/ml) of anti-membrane LIGHT antibodies (3B04, 03D12 and 02B111) for 40 min at 4° C. A control, of a mAb that binds both soluble and membrane LIGHT was included (F19 from EP2292663). The samples were washed three times and flow cytometry analysis was performed. Specific mean fluorescence intensity (MFI) obtained from the binding of DcR3-Fc-AF647 to LIGHT on EL4 cells were used to determine the levels of competition binding.

[9] = biological target: T2, Human LIGHT stably expressed on EL4 …; assay: flow cytometry competition on EL4-LIGHT cells, co-incubation 40 min 4 C; blocked ligand DcR3-Fc-AF647 0.8 ug/ml; same IC50 as 0.031ug/ml, second unit printed
Experimental: as §1

Chain of Full length LIGHT S192A on HEK293FF cells (O43557 whole entry S192A, the tested form may be a part): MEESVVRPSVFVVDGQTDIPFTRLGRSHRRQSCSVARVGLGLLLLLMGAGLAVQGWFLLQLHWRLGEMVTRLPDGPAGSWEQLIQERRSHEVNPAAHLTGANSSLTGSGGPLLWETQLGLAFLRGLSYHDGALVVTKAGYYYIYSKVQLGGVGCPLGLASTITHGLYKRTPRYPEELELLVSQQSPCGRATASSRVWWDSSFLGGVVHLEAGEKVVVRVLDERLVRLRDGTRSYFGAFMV
Chain of Full length LIGHT W198A on HEK293FF cells (O43557 whole entry W198A): as the sequence (O43557 whole entry S192A, the tested form may be a part) above, with A192S, W198A counted along it
Chain of Full length LIGHT W197A on HEK293FF cells (O43557 whole entry W197A): as the sequence (O43557 whole entry S192A, the tested form may be a part) above, with A192S, W197A counted along it
Chain of Full length LIGHT R189A on HEK293FF cells (O43557 whole entry R189A): as the sequence (O43557 whole entry S192A, the tested form may be a part) above, with R189A, A192S counted along it
Chain of Full length LIGHT S194A on HEK293FF cells (O43557 whole entry S194A): as the sequence (O43557 whole entry S192A, the tested form may be a part) above, with A192S, S194A counted along it

Row | Binder | % of WT binding [1] | % of WT binding [2] | % of WT binding [3] | % of WT binding [4] | % of WT binding [5] | % of WT binding [6] | fold less specific to soluble LIGHT than membrane LIGHT [7] | IC50 [8] | IC50 [9]
1 | B1 | 81% | 80% | 0% | 0% | 0% | 88% | > 100 fold | 138 pM | 
2 | B2 | 83% | 70% | 1% | 1% | 2% | 84% |  |  | 214 pM
